This note sets out measurements from article PMC4498696.

Experiment [1] concerns the target biotinylated prefusion RSV F DS-Cav1, subtype B (respiratory syncytial virus, subtype B | not stated) (UniProt P13843).
Experiment [2] deals with purified prefusion F N426D (respiratory syncytial virus, strain A2 | not stated) (UniProt P03420). The experiment can be described thus: ELISA. Background: An ELISA detects its analyte on a solid surface through an enzyme-linked reagent.
Experiment [3] deals with full-length prefusion F N426D (RSV F residues 1-574 with the DS-Cav1 stabilizing mutations and N426D (respiratory syncytial virus, strain not stated) (UniProt P03420)). As to the kind of experiment: flow cytometry on cells. On the technique in general: Flow cytometry measures light scatter and fluorescence of single cells or particles in a stream.
The target of experiment [4] is biotinylated prefusion RSV F DS-Cav1, subtype B (respiratory syncytial virus, subtype B | not stated) (UniProt P13843). The experiment can be described thus: Luminex bead binding assay; biotinylated RSV F proteins coupled to avidin-coated MagPlex beads (1 μg per 50,000 beads); IgG in 10-fold serial dilutions 1 μM to 0.1 pM; PE-conjugated anti-human IgG Fc; PBS, 0.1% BSA, 0.05% Tween 20.

Experiment [5] concerns the target AM14 IgG (human). The experiment can be described thus: ELISA.

Sequence of AM14 IgG (human) (heavy, as listed by the source, chain 1 of 2): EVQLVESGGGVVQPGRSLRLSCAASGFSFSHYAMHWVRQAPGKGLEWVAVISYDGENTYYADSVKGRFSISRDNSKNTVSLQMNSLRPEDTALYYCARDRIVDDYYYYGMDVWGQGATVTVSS
Sequence of AM14 IgG (human) (light, as listed by the source, chain 2 of 2): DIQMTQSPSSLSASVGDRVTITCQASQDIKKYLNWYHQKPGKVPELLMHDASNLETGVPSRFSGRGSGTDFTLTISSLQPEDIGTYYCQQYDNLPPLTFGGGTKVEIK

Usually EC50 stands for the midpoint of the concentration-response curve. A higher EC50 goes with a need for much substance. Turning to AM14 IgG (antibody), in experiment [1], the IC50 of neutralisation of RSV subtype B strain 9320 (F of the virus), microneutralization on HEp-2 cells turned out to be 0.0046 µg/mL and the IC50 of neutralisation of RSV subtype B strain 18537 (F of the virus), microneutralization on HEp-2 cells amounted to 0.0308 µg/mL. The substance further registered a fold reduction of binding against wild-type prefusion F in experiment [2] of 100 fold. The same substance gave a fold reduction of binding against wild-type prefusion F in experiment [3] of 4 fold. This substance came in with an EC50 in experiment [4] of 0.18 nM.
As for “cleaved monomeric RSV F (residues 1-524, without the foldon trimerization motif) (from UniProt P03420 26-109; P03420 26-524) (domain or fragment)”, the fold decrease in other in experiment [5] was 100 fold.
